The source of these data is IntAct's records for PubMed 35512704.

B1: Mothers against decapentaplegic homolog 4 (Homo sapiens), Q13485 (parent)
chain: MDNMSITNTPTSNDACLSIVHSLMCHRQGGESETFAKRAIESLVKKLKEKKDELDSLITAITTNGAHPSKCVTIQRTLDGRLQVAGRKGFPHVIYARLWRWPDLHKNELKHVKYCQYAFDLKCDSVCVNPYHYERVVSPGIDLSGLTLQSNAPSSMMVKDEYVHDFEGQPSLSTEGHSIQTIQHPPSNRASTETYSTPALLAPSESNATSTANFPNIPVASTSQPASILGGSHSEGLLQIASGPQPGQQQNGFTGQPATYHHNSTTTWTGSRTAPYTPNLPHHQNGHLQHHPPMPPHPGHYWPVHNELAFQPPISNHPAPEYWCSIAYFEMDVQVGETFKVPSSCPIVTVDGYVDPSGGDRFCLGQLSNVHRTEAIERARLHIGKGVQLECKGEGDVWVRCLSDHAVFVQSYYLDREAGRAPGDAVHKIYPSAYIKVFDLRQCHRQMQQQAATAQAAAAAQAAAVAGNIPGPGSVGGIAPAISLSAAAGIGVDDLRRLCILRMSFVKGWGPDYPRQSIKETPCWIEIHLHRALQLLDEVLHTMPIADPQPLD
partner: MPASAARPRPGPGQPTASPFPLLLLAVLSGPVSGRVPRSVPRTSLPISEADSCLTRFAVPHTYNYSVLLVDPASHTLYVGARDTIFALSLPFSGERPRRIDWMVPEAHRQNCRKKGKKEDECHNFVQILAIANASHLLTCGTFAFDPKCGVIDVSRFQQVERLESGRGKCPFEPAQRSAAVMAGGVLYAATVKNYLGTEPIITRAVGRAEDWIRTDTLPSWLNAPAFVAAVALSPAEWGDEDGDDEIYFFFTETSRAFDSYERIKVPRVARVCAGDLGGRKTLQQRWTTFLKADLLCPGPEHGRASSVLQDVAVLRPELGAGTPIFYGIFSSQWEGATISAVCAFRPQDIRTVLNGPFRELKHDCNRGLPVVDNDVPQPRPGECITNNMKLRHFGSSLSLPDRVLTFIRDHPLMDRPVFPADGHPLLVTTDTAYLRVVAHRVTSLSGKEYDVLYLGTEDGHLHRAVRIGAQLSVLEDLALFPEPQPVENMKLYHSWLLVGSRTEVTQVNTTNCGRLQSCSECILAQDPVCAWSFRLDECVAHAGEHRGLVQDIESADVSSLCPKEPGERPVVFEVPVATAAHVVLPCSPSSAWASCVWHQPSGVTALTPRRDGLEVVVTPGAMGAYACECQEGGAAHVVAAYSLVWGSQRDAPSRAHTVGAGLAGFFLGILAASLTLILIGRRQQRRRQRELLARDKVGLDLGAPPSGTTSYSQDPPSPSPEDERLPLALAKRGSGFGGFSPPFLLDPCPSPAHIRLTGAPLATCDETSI
B2: Mothers against decapentaplegic homolog 4 (Homo sapiens), Q13485 (parent)
chain: B1 chain
partner: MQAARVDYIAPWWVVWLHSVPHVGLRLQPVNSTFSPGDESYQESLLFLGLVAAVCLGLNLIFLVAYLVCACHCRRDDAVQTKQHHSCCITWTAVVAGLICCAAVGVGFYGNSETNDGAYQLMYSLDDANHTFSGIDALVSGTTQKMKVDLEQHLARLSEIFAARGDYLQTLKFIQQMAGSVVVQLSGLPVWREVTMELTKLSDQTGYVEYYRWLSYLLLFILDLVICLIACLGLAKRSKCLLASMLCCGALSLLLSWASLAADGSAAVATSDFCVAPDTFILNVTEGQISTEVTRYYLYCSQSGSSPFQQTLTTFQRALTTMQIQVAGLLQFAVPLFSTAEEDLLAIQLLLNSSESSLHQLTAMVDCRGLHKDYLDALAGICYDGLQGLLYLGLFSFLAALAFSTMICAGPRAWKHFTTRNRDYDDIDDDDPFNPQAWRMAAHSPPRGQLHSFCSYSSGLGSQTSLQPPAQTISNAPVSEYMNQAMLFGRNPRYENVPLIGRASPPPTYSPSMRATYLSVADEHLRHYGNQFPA
B3: Mothers against decapentaplegic homolog 4 (Homo sapiens), Q13485 (parent)
chain: B1 chain
partner: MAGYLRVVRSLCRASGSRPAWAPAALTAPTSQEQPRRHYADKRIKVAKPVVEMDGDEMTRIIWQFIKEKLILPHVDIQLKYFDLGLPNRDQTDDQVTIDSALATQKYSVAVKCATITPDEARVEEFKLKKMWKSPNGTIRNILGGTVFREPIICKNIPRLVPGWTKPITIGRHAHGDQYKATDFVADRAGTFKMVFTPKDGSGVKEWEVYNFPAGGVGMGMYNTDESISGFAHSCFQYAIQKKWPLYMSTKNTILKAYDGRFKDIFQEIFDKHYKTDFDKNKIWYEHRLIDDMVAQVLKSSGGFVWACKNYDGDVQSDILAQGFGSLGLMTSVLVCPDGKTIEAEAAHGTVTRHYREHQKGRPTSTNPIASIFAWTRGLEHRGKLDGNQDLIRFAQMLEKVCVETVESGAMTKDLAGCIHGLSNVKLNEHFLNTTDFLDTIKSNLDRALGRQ
B4: Mothers against decapentaplegic homolog 4 (Homo sapiens), Q13485 (parent)
chain: B1 chain
partner: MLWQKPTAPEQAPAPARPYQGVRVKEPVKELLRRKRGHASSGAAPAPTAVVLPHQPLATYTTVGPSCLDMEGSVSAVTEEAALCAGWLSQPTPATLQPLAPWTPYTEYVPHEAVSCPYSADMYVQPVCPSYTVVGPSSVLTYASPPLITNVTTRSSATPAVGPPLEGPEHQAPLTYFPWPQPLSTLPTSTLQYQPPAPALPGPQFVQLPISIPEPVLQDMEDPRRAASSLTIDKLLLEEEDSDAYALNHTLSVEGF
B5: Mothers against decapentaplegic homolog 4 (Homo sapiens), Q13485 (parent)
chain: B1 chain
partner: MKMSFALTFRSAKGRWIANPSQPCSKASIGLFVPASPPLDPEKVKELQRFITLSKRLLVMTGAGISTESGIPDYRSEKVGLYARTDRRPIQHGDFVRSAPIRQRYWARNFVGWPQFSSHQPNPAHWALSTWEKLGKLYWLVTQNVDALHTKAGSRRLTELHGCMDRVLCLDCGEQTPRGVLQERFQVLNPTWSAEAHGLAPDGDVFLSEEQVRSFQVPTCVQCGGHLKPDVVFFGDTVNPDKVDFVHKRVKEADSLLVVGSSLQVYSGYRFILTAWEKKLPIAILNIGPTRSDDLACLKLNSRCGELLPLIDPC
B6: Speckle-type POZ protein (Homo sapiens), O43791 (parent)
chain: MSRVPSPPPPAEMSSGPVAESWCYTQIKVVKFSYMWTINNFSFCREEMGEVIKSSTFSSGANDKLKWCLRVNPKGLDEESKDYLSLYLLLVSCPKSEVRAKFKFSILNAKGEETKAMESQRAYRFVQGKDWGFKKFIRRDFLLDEANGLLPDDKLTLFCEVSVVQDSVNISGQNTMNMVKVPECRLADELGGLWENSRFTDCCLCVAGQEFQAHKAILAARSPVFSAMFEHEMEESKKNRVEINDVEPEVFKEMMCFIYTGKAPNLDKMADDLLAAADKYALERLKVMCEDALCSNLSVENAAEILILADLHSADQLKTQAVDFINYHASDVLETSGWKSMVVSHPHLVAEAYRSLASAQCPFLGPPRKRLKQS
partner: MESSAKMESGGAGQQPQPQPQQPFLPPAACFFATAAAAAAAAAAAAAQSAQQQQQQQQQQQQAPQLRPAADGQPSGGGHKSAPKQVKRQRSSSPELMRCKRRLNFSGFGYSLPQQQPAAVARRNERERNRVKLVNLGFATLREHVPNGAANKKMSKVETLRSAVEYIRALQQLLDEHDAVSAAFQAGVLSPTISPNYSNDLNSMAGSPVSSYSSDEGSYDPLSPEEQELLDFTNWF
B7: Mothers against decapentaplegic homolog 4 (Homo sapiens), Q13485 (parent)
chain: B1 chain
partner: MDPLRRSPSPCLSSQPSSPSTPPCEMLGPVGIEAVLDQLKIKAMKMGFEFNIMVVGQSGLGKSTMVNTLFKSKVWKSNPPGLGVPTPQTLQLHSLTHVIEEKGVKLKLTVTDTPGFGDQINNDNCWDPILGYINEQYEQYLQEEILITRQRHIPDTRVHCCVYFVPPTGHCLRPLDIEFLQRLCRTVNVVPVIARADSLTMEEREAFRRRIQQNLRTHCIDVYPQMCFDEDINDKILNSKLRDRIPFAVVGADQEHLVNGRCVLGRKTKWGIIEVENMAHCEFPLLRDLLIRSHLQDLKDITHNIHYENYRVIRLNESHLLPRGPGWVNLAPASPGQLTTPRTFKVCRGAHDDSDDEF

Variants of B1 are the subject of one assay. As to conditions: with sem4f_human SEMA4F.
For the variant R361H, the “effect of a mutation on the interaction” value is given as “with no effect”.

Variants of B2 are the subject of another assay. As to conditions: with ttyh2_human TTYH2, Q9BSA4.
Consider G386D, for which the “effect of a mutation on the interaction” value was “with no effect”.

In a further assay the parent is B3. As to conditions: with idhp_human IDH2, P48735.
Take G386D: the “effect of a mutation on the interaction” value was “with no effect”.

In another assay the parent is B4. As to conditions: with obf1_human POU2AF1, Q16633.
As to G386D, the “effect of a mutation on the interaction” value is “with no effect”.

Another assay covers variants of B4. As to conditions: with obf1_human POU2AF1, Q16633. The source holds these as a separate data set.
For the variant G386D, the “effect of a mutation on the interaction” value was “increasing interaction strength”.

In a further assay the parent is B5. As to conditions: with sir4_human SIRT4, Q9Y6E7.
On to G386D, for which the “effect of a mutation on the interaction” value is reported as “with no effect”.

The variants in a further assay derive from B6. As to conditions: with ascl1_human ASCL1, P50553.
MSRVPSPPPPAEMSSGPVAESWCYTQIKVVKFSYMWTINNFSFCREEMGEVIKSSTFSSGANDKLKWCLRVNPKGLDEESKDYLSLYLLLVSCPKSEVRAKCKFSILNAKGEETKAMESQRAYRFVQGKDWGFKKFIRRDFLLDEANGLLPDDKLTLFCEVSVVQDSVNISGQNTMNMVKVPECRLADELGGLWENSRFTDCCLCVAGQEFQAHKAILAARSPVFSAMFEHEMEESKKNRVEINDVEPEVFKEMMCFIYTGKAPNLDKMADDLLAAADKYALERLKVMCEDALCSNLSVENAAEILILADLHSADQLKTQAVDFINYHASDVLETSGWKSMVVSHPHLVAEAYRSLASAQCPFLGPPRKRLKQS [F102C]: the “effect of a mutation on the interaction” value is “with no effect”.

Variants of B6 are the subject of the next assay. As to conditions: with ascl1_human ASCL1, P50553. This is another data set of the same source.
With MSRVPSPPPPAEMSSGPVAESWCYTQIKVVKFSYMWTINNFSFCREEMGEVIKSSTFSSGANDKLKWCLRVNPKGLDEESKDYLSLCLLLVSCPKSEVRAKFKFSILNAKGEETKAMESQRAYRFVQGKDWGFKKFIRRDFLLDEANGLLPDDKLTLFCEVSVVQDSVNISGQNTMNMVKVPECRLADELGGLWENSRFTDCCLCVAGQEFQAHKAILAARSPVFSAMFEHEMEESKKNRVEINDVEPEVFKEMMCFIYTGKAPNLDKMADDLLAAADKYALERLKVMCEDALCSNLSVENAAEILILADLHSADQLKTQAVDFINYHASDVLETSGWKSMVVSHPHLVAEAYRSLASAQCPFLGPPRKRLKQS [Y87C], the “effect of a mutation on the interaction” value was “with no effect”.

Variants of B6 are the subject of another assay. As to conditions: with ascl1_human ASCL1, P50553. This is another data set of the same source.
For MSRVPSPPPPAEMSSGPVAESWCYTQIKVVKFSYMWTINNFSFCREEMGEVIKSSTFSSGANDKLKWCLRVNPKGLDEESKDYLSLYLLLVSCPKSEVRAKFKFSILNAKGEETKAMESQRAYRFVQGKDWGLKKFIRRDFLLDEANGLLPDDKLTLFCEVSVVQDSVNISGQNTMNMVKVPECRLADELGGLWENSRFTDCCLCVAGQEFQAHKAILAARSPVFSAMFEHEMEESKKNRVEINDVEPEVFKEMMCFIYTGKAPNLDKMADDLLAAADKYALERLKVMCEDALCSNLSVENAAEILILADLHSADQLKTQAVDFINYHASDVLETSGWKSMVVSHPHLVAEAYRSLASAQCPFLGPPRKRLKQS [F133L], the “effect of a mutation on the interaction” value was “with no effect”.

A further assay covers variants of B6. As to conditions: with ascl1_human ASCL1, P50553. The source holds these as a separate data set.
As for MSRVPSPPPPAEMSSGPVAESWCYTQIKVVKFSYMWTINNFSFCREEMGEVIKSSTFSSGANDKLKWCLRVNPKGLDEESKDYLSLYLLLVSCPKSEVRAKFKFSILNAKGEETKAMESQRAYRFVQGKDWGVKKFIRRDFLLDEANGLLPDDKLTLFCEVSVVQDSVNISGQNTMNMVKVPECRLADELGGLWENSRFTDCCLCVAGQEFQAHKAILAARSPVFSAMFEHEMEESKKNRVEINDVEPEVFKEMMCFIYTGKAPNLDKMADDLLAAADKYALERLKVMCEDALCSNLSVENAAEILILADLHSADQLKTQAVDFINYHASDVLETSGWKSMVVSHPHLVAEAYRSLASAQCPFLGPPRKRLKQS [F133V], the “effect of a mutation on the interaction” value is given as “with no effect”.

The variants in another assay derive from B7. As to conditions: with sep12_human SEPTIN12, Q8IYM1.
For R361C, the “effect of a mutation on the interaction” value was “with no effect”.
